Paper doi:10.1101/2024.12.16.628640

Experiments:
[1] = molecular target: D-glucose isomerase (D-xylose isomerase, XylA) of Xanthomonas campestris, His-tagged (Xanthomonas campestris); test: SEC
[2] = molecular target: D-glucose isomerase (XylA) of Xanthomonas campestris with the exchange W147S, His-tagged (Xanthomonas campestris); test: SEC

| Substance | stoichiometry N [1] | stoichiometry N [2] |
| --- | --- | --- |
| D-glucose isomerase (D-xylose isomerase, XylA) of Xanthomonas campestris, His-tagged (enzyme) | 2 | – |
| D-glucose isomerase (XylA) of Xanthomonas campestris with the exchange W147S, His-tagged (enzyme) | – | 2 |
